Assay results as given in publication PMC5761895.

Biological target: Fluorescently labelled replication protein A (Flu-RPA) (human) (UniProt P27694)
Sequence (P27694 whole entry, chain 1 of 3): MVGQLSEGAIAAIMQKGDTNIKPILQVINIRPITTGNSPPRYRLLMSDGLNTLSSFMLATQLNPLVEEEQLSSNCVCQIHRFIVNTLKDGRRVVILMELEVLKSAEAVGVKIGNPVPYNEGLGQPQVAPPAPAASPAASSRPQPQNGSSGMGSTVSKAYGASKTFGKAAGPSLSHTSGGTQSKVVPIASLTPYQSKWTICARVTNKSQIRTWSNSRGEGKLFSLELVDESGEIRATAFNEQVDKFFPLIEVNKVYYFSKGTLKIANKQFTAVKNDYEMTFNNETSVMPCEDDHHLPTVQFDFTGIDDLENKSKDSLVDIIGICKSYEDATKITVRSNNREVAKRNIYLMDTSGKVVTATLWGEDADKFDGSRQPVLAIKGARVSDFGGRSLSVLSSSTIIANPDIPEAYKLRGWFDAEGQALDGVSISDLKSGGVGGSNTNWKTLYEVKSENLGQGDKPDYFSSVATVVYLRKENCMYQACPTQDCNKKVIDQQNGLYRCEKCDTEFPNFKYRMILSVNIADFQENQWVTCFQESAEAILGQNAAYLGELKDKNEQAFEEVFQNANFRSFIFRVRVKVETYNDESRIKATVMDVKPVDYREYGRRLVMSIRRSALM
Sequence (P15927 whole entry, chain 2 of 3, further chain): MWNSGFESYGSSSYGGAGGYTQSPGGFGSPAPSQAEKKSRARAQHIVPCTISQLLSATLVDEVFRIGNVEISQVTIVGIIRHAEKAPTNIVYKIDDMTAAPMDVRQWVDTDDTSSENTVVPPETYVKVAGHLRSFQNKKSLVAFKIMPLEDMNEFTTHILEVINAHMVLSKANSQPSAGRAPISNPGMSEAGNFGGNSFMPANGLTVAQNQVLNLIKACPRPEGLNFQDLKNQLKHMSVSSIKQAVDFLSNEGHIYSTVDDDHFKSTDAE
Sequence (P35244 whole entry, chain 3 of 3, further chain): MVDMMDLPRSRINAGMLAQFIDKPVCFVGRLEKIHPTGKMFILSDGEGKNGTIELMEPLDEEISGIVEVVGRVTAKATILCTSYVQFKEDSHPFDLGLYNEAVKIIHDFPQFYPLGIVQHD

Chain of Recombinant human xeroderma pigmentosum group A protein (hXPA) bearing the N-terminal polyhistidine fragment (P23025 whole entry, the tested form may be a part): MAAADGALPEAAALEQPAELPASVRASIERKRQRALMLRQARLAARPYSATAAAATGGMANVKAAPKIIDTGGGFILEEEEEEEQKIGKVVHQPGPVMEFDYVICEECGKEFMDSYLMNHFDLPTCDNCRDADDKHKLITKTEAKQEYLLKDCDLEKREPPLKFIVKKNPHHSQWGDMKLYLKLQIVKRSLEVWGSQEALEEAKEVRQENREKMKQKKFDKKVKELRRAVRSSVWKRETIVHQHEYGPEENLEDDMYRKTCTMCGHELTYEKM

- EC50: 18 nM
Substance: Recombinant human xeroderma pigmentosum group A protein (hXPA) bearing the N-terminal polyhistidine fragment (from UniProt P23025 1-273) (natural protein)
